Assay results from patent publication US20120058906A1.

Assays:
[1] = molecular target: rHuman EGF R/Fc Chimera, CF (R&D Systems Cat#344-ER) (human) (UniProt P00533); test: ECL (MSD multi-spot), Fab 145 nM; blank 357
[2] = molecular target: rHuman Erythropoietin R/Fc Chimera, CF (R&D Systems Cat#963-ER) (human) (UniProt P19235); test: ECL (MSD multi-spot), Fab 145 nM; blank 357
[3] = molecular target: rHuman HGF R/c-MET/Fc Chimera, CF (R&D Systems Cat#358-MT/CF) (human) (UniProt P08581); test: ECL (MSD multi-spot), Fab 145 nM; blank 357
[4] = molecular target: rHuman IGF-1 sR (IGF-1 sR), CF (R&D Systems Cat#391-GR) (human) (UniProt P08069); test: ECL (MSD multi-spot), Fab 145 nM; blank 357
[5] = molecular target: rHuman Notch-1/Fc Chimera, CF (R&D Systems Cat#3647-TK) (human) (UniProt P46531); test: ECL (MSD multi-spot), Fab 145 nM; blank 357
[6] = molecular target: rHuman P-Cadherin/Fc Chimera, CF (R&D Systems Cat#861-PC) (human) (UniProt P22223); test: ECL (MSD multi-spot), Fab 145 nM; blank 357
[7] = molecular target: rHuman EGF R/Fc Chimera, CF (R&D Systems Cat#344-ER) (human) (UniProt P00533); test: ECL (MSD multi-spot), Fab 580 nM; blank 679
[8] = molecular target: rHuman ErbB2/Fc Chimera, CF (R&D Systems Cat#1129-ER) (human) (UniProt P04626); test: ECL (MSD multi-spot), Fab 580 nM; blank 679
[9] = molecular target: rHuman Erythropoietin R/Fc Chimera, CF (R&D Systems Cat#963-ER) (human) (UniProt P19235); test: ECL (MSD multi-spot), Fab 580 nM; blank 679
[10] = molecular target: rHuman HGF R/c-MET/Fc Chimera, CF (R&D Systems Cat#358-MT/CF) (human) (UniProt P08581); test: ECL (MSD multi-spot), Fab 580 nM; blank 679
[11] = molecular target: rHuman IGF-1 sR (IGF-1 sR), CF (R&D Systems Cat#391-GR) (human) (UniProt P08069); test: ECL (MSD multi-spot), Fab 580 nM; blank 679
[12] = molecular target: rHuman Notch-1/Fc Chimera, CF (R&D Systems Cat#3647-TK) (human) (UniProt P46531); test: ECL (MSD multi-spot), Fab 580 nM; blank 679
[13] = molecular target: rHuman P-Cadherin/Fc Chimera, CF (R&D Systems Cat#861-PC) (human) (UniProt P22223); test: ECL (MSD multi-spot), Fab 580 nM; blank 679
[14] = molecular target: rHuman EGF R/Fc Chimera, CF (R&D Systems Cat#344-ER) (human) (UniProt P00533); test: ECL (MSD multi-spot), Fab 9.1 nM; blank 276
[15] = molecular target: rHuman ErbB2/Fc Chimera, CF (R&D Systems Cat#1129-ER) (human) (UniProt P04626); test: ECL (MSD multi-spot), Fab 9.1 nM; blank 276
[16] = molecular target: rHuman Erythropoietin R/Fc Chimera, CF (R&D Systems Cat#963-ER) (human) (UniProt P19235); test: ECL (MSD multi-spot), Fab 9.1 nM; blank 276
[17] = molecular target: rHuman HGF R/c-MET/Fc Chimera, CF (R&D Systems Cat#358-MT/CF) (human) (UniProt P08581); test: ECL (MSD multi-spot), Fab 9.1 nM; blank 276
[18] = molecular target: rHuman IGF-1 sR (IGF-1 sR), CF (R&D Systems Cat#391-GR) (human) (UniProt P08069); test: ECL (MSD multi-spot), Fab 9.1 nM; blank 276
[19] = molecular target: rHuman Notch-1/Fc Chimera, CF (R&D Systems Cat#3647-TK) (human) (UniProt P46531); test: ECL (MSD multi-spot), Fab 9.1 nM; blank 276
[20] = molecular target: rHuman P-Cadherin/Fc Chimera, CF (R&D Systems Cat#861-PC) (human) (UniProt P22223); test: ECL (MSD multi-spot), Fab 9.1 nM; blank 276
[21] = molecular target: rHuman EGF R/Fc Chimera, CF (R&D Systems Cat#344-ER) (human) (UniProt P00533); test: ECL (MSD multi-spot), Fab 36.3 nM; blank 314
[22] = molecular target: rHuman ErbB2/Fc Chimera, CF (R&D Systems Cat#1129-ER) (human) (UniProt P04626); test: ECL (MSD multi-spot), Fab 36.3 nM; blank 314
[23] = molecular target: rHuman Erythropoietin R/Fc Chimera, CF (R&D Systems Cat#963-ER) (human) (UniProt P19235); test: ECL (MSD multi-spot), Fab 36.3 nM; blank 314
[24] = molecular target: rHuman HGF R/c-MET/Fc Chimera, CF (R&D Systems Cat#358-MT/CF) (human) (UniProt P08581); test: ECL (MSD multi-spot), Fab 36.3 nM; blank 314
[25] = molecular target: rHuman IGF-1 sR (IGF-1 sR), CF (R&D Systems Cat#391-GR) (human) (UniProt P08069); test: ECL (MSD multi-spot), Fab 36.3 nM; blank 314
[26] = molecular target: rHuman Notch-1/Fc Chimera, CF (R&D Systems Cat#3647-TK) (human) (UniProt P46531); test: ECL (MSD multi-spot), Fab 36.3 nM; blank 314
[27] = molecular target: rHuman P-Cadherin/Fc Chimera, CF (R&D Systems Cat#861-PC) (human) (UniProt P22223); test: ECL (MSD multi-spot), Fab 36.3 nM; blank 314
[28] = molecular target: rHuman EGF R/Fc Chimera, CF (R&D Systems Cat#344-ER) (human) (UniProt P00533); test: ECL (MSD multi-spot) screen, antigen spotted on plate, Fab at 0.58 uM; blank spot 403
[29] = molecular target: rHuman ErbB2/Fc Chimera, CF (R&D Systems Cat#1129-ER) (human) (UniProt P04626); test: as above
[30] = molecular target: rHuman HGF R/c-MET/Fc Chimera, CF (R&D Systems Cat#358-MT/CF) (human) (UniProt P08581); test: as above
[31] = molecular target: rHuman IGF-1 sR, CF (R&D Systems Cat#391-GR) (human) (UniProt P08069); test: as above

Chain of rHuman Erythropoietin R/Fc Chimera, CF (R&D Systems Cat#963-ER) (human) (P19235 25-250, change not shown): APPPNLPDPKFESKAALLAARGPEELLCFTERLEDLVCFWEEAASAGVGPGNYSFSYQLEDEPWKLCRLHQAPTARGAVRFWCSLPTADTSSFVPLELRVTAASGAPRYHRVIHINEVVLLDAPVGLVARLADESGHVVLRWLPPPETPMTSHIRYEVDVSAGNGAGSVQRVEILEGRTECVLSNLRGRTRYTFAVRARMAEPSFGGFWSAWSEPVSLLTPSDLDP

- ECL signal [1]: 856 ECL signal
- ECL signal [2]: 845 ECL signal
- ECL signal [3]: 1170 ECL signal
- ECL signal [4]: 794 ECL signal
- ECL signal [5]: 860 ECL signal
- ECL signal [6]: 850 ECL signal
- ECL signal [7]: 1630 ECL signal
- ECL signal [8]: 1710 ECL signal
- ECL signal [9]: 1580 ECL signal
- ECL signal [10]: 2340 ECL signal
- ECL signal [11]: 1360 ECL signal
- ECL signal [12]: 1580 ECL signal
- ECL signal [13]: 2240 ECL signal
- ECL signal [14]: 800 ECL signal
- ECL signal [15]: 987 ECL signal
- ECL signal [16]: 697 ECL signal
- ECL signal [17]: 894 ECL signal
- ECL signal [18]: 788 ECL signal
- ECL signal [19]: 754 ECL signal
- ECL signal [20]: 589 ECL signal
- ECL signal [21]: 831 ECL signal
- ECL signal [22]: 1030 ECL signal
- ECL signal [23]: 722 ECL signal
- ECL signal [24]: 1060 ECL signal
- ECL signal [25]: 799 ECL signal
- ECL signal [26]: 633 ECL signal
- ECL signal [27]: 684 ECL signal
- ECL signal [28]: 1020
- ECL signal [29]: 1260
- ECL signal [30]: 1710
- ECL signal [31]: 1200
Substance: Fab VH4-34_IGHD7-27*01_IGHJ4*01 & V1-4_IGLJ4*01
